Conditions: Hordeum vulgare; pH 6.3; 25 °C; GdnHCl; Fluorescence; MES 50 mM; whole UniProt chain shown

B1: Subtilisin-chymotrypsin inhibitor-2A wild type, P01053 (protein)
chain: MSSVEKKPEGVNTGAGDRHNLKTEWPELVGKSVEEAKKVILQDKPEAQIIVLPVGTIVTMEYRIDRVRLFVDKLDNIAQVPRVG
In the case of B1, the denaturant m value is reported as 1.9 kcal/mol/M and the “denaturant midpoint (higher = more stable)” value is reported as 4 M.

From FireProtDB (doi:10.1021/bi00017a003)
